Laboratory results: patent US20050171017A1

What was measured:
[1] = molecular target: thyroid-stimulating hormone (TSH) receptor (human) (UniProt P16473); test: cell-based or functional assay
[2] = molecular target: thyroid-stimulating hormone (TSH) receptor (human) (UniProt P16473); test: flow cytometry, 10 ug/ml TSH-biotin + SA-PE on human PBMC donor 2, lymphoid gate; SA-PE alone 3.92, unstained 3.19; no * (no credible shift)
[3] = molecular target: thyroid-stimulating hormone (TSH) receptor (human) (UniProt P16473); test: flow cytometry, 10 ug/ml TSH-biotin + SA-PE on human PBMC donor 1, myeloid gate; SA-PE alone 4.44, unstained 3.43; * = credible positive shift
[4] = molecular target: thyroid-stimulating hormone (TSH) receptor (human) (UniProt P16473); test: flow cytometry, 10 ug/ml TSH-biotin + SA-PE on human PBMC donor 1, lymphoid gate; SA-PE alone 2.50, unstained 2.13; no * (no credible shift)
[5] = molecular target: thyroid-stimulating hormone (TSH) receptor (human) (UniProt P16473); test: flow cytometry, 10 ug/ml TSH-biotin + SA-PE on U937 human monocyte line, all live cells; SA-PE alone 4.88, unstained 4.49; * = credible positive shift
[6] = molecular target: thyroid-stimulating hormone (TSH) receptor (human) (UniProt P16473); test: flow cytometry, 10 ug/ml TSH-biotin + SA-PE on human PBMC donor 2, myeloid gate; SA-PE alone 5.92, unstained 4.33; * = credible positive shift

Sequence of thyroid-stimulating hormone (TSH) receptor (human) (P16473 21-764): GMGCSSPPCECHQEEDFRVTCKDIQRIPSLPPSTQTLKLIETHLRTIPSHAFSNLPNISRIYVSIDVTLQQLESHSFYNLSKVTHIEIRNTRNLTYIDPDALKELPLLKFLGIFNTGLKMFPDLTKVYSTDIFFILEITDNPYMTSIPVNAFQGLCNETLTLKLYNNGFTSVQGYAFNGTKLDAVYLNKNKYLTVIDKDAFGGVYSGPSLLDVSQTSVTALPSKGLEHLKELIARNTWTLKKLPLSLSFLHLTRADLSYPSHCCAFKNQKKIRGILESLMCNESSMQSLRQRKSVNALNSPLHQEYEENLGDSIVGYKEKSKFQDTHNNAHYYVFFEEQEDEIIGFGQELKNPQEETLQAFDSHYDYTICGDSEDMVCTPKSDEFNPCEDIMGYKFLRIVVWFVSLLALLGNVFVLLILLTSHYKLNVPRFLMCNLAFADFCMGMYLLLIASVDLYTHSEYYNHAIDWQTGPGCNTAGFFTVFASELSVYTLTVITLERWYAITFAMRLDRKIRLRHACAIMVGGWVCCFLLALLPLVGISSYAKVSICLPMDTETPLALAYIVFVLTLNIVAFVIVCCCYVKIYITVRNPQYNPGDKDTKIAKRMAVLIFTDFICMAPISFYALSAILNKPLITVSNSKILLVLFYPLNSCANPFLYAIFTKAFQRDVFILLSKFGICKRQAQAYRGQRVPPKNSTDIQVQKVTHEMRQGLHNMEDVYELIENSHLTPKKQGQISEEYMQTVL

luciferase induction (CRE-luciferase reporter, NCI-H295R human adrenal cortex cells) [1] | FL-2 MFI [2] | FL-2 MFI [3] | FL-2 MFI [4] | FL-2 MFI [5] | FL-2 MFI [6] | Substance
15 to 25 fold | – | – | – | – | – | Thyroid stimulating hormone (TSH), purified TSH heterodimer protein (from UniProt P01215 25-116; P01222 21-132) (ligand)
– | 4.23 MFI | 7.78 MFI | 2.63 MFI | 6.34 MFI | 7.26 MFI | TSH-biotin (from UniProt P01215 25-116; P01222 21-132) (ligand)
